The values that follow come from paper PMC5608322, “Spontaneous non-canonical assembly of CcmK hexameric components from β-carboxysome shells of cyanobacteria” (PLoS ONE, 2017).

Series [1] concerns the molecule itself. As to the kind of experiment: AFM imaging; purified protein adsorbed on freshly cleaved mica, imaged in buffer in contact mode at ambient temperature; 10 mM NaPi, MES or Tris, 300 mM NaCl, pH 5.0 to 8.0, some with 0.5 mM additives; hexamers tiling into 2D assemblies.
Series [2] concerns the molecule itself. As to the kind of experiment: native MS; nano-ESI Q-ToF, positive ion mode, 150 mM ammonium acetate pH 8, soft ionization; tandem MS/MS (CID) of hexamer ions gives monomers and pentamers; oligomer of the protein with itself.
Series [3] concerns the molecule itself. As to the kind of experiment: SEC; Beckman Ultraspherogel SEC2000 column, 20 mM Tris-HCl, 300 mM NaCl, pH 7; size by comparison with calibration standards; oligomer of the protein with itself. (In general: SEC sorts molecules by how far they enter the pores of the column.)

A word on the stoichiometry N: it is the number of molecules, sites or subunits per partner or assembly.

B1: NIR K2^-TH: triple mutant of CcmK2 Syn6803 with A63 A64 N65 replaced by NIR of CcmK1 (natural protein, Synechocystis sp. PCC6803, UniProt P72761 1-103, looked up)
chain: MSIAVGMIETRGFPAVVEAADSMVKAARVTLVGYEKIGSGRVTVIVRGDVSEVQASVSAGIENIRRVNGGEVLSTHIIARPHENLEYVLPIRYTEEVEQFRTY
notes: CcmK2, Synechocystis sp; PCC6803, as K2^-TH with residues 63-65 AAN replaced by NIR; TEV site between protein and tag as in K2^-TH; also called N^63IR K2^-TH 6803; source: E. coli BL21 (DE3), purified (TALON cobalt IMAC); not shown: His4, C-terminal, kept
For the protein B1, the binding result in series [1] is given as “binds”.

B2: CcmK2 from Synechococcus elongatus PCC 7942 with C-terminal His6 tag (K2^-H Syn7942) (natural protein, Synechococcus elongatus PCC7942, UniProt Q03511 1-102, looked up)
chain: MPIAVGMIETLGFPAVVEAADAMVKAARVTLVGYEKIGSGRVTVIVRGDVSEVQASVSAGLDSAKRVAGGEVLSHHIIARPHENLEYVLPIRYTEAVEQFRM
notes: also called K2^-H 7942; Syn7942 K2^-H; source: E. coli BL21 (DE3), purified (TALON cobalt IMAC); not shown: His6, C-terminal, kept
As to B2, the “stoichiometry N” value in series [2] is 6.

B3: CcmK1 from Synechocystis sp. PCC6803 with C-terminal TEV site and His4 tag (K1^-TH) (natural protein, UniProt P72760 1-111, looked up)
chain: MSIAVGMIETLGFPAVVEAADSMVKAARVTLVGYEKIGSGRVTVIVRGDVSEVQASVTAGIENIRRVNGGEVLSNHIIARPHENLEYVLPIRYTEAVEQFREIVNPSIIRR
notes: CcmK1, Synechocystis sp; PCC6803, full-length gene, codon-optimized for E. coli; A TEV protease recognition site stands between protein and His4 tag; also called K1^-TH 6803; CcmK1 Syn6803; source: E. coli BL21 (DE3), purified (TALON cobalt IMAC); not shown: His4, C-terminal, kept
Consider B3, for which, in series [3], the “stoichiometry N” value came to 6.

B4: AAN K1^-TH: triple mutant of CcmK1 Syn6803 with N63 I64 R65 replaced by AAN of CcmK2 (natural protein, Synechocystis sp. PCC6803, UniProt P72760 1-111, looked up)
chain: MSIAVGMIETLGFPAVVEAADSMVKAARVTLVGYEKIGSGRVTVIVRGDVSEVQASVTAGIEAANRVNGGEVLSNHIIARPHENLEYVLPIRYTEAVEQFREIVNPSIIRR
notes: CcmK1, Synechocystis sp; PCC6803, as K1^-TH with residues 63-65 NIR replaced by AAN; TEV site between protein and tag as in K1^-TH; also called A^63AN K1^-TH 6803; source: E. coli BL21 (DE3), purified (TALON cobalt IMAC); not shown: His4, C-terminal, kept
For B4, in series [1], the binding result is recorded as “binds”.

B5: D49A mutant of K1^-TH (CcmK1 Syn6803) (natural protein, Synechocystis sp. PCC6803, UniProt P72760 1-111, looked up)
chain: MSIAVGMIETLGFPAVVEAADSMVKAARVTLVGYEKIGSGRVTVIVRGAVSEVQASVTAGIENIRRVNGGEVLSNHIIARPHENLEYVLPIRYTEAVEQFREIVNPSIIRR
notes: CcmK1, Synechocystis sp; PCC6803, as K1^-TH with D49A; TEV site between protein and tag as in K1^-TH; source: E. coli BL21 (DE3), purified (TALON cobalt IMAC); not shown: His4, C-terminal, kept
In the case of B5, the binding result in series [1] is “binds”.

B6: R80A mutant of K1^-TH (CcmK1 Syn6803) (natural protein, Synechocystis sp. PCC6803, UniProt P72760 1-111, looked up)
chain: MSIAVGMIETLGFPAVVEAADSMVKAARVTLVGYEKIGSGRVTVIVRGDVSEVQASVTAGIENIRRVNGGEVLSNHIIAAPHENLEYVLPIRYTEAVEQFREIVNPSIIRR
notes: CcmK1, Synechocystis sp; PCC6803, as K1^-TH with R80A; TEV site between protein and tag as in K1^-TH; source: E. coli BL21 (DE3), purified (TALON cobalt IMAC); not shown: His4, C-terminal, kept
As to B6, the binding result in series [1] is “binds”.

B7: R28A mutant of K1^-TH (CcmK1 Syn6803) (natural protein, Synechocystis sp. PCC6803, UniProt P72760 1-111, looked up)
chain: MSIAVGMIETLGFPAVVEAADSMVKAAAVTLVGYEKIGSGRVTVIVRGDVSEVQASVTAGIENIRRVNGGEVLSNHIIARPHENLEYVLPIRYTEAVEQFREIVNPSIIRR
notes: CcmK1, Synechocystis sp; PCC6803, as K1^-TH with R28A; TEV site between protein and tag as in K1^-TH; source: E. coli BL21 (DE3), purified (TALON cobalt IMAC); not shown: His4, C-terminal, kept
For the protein B7, the binding result in series [1] is recorded as “binds”.

B8: R28A/R80A double mutant of K1^-TH (CcmK1 Syn6803) (natural protein, Synechocystis sp. PCC6803, UniProt P72760 1-111, looked up)
chain: MSIAVGMIETLGFPAVVEAADSMVKAAAVTLVGYEKIGSGRVTVIVRGDVSEVQASVTAGIENIRRVNGGEVLSNHIIAAPHENLEYVLPIRYTEAVEQFREIVNPSIIRR
notes: CcmK1, Synechocystis sp; PCC6803, as K1^-TH with R28A and R80A; TEV site between protein and tag as in K1^-TH; source: E. coli BL21 (DE3), purified (TALON cobalt IMAC); not shown: His4, C-terminal, kept
Regarding B8, in series [1], the binding result is “binds”.

B9: CcmK1 from Synechocystis sp. PCC6803, TEV-proteolysis product of K1^-TH (K1^-) (natural protein, UniProt P72760 1-111, looked up)
chain: MSIAVGMIETLGFPAVVEAADSMVKAARVTLVGYEKIGSGRVTVIVRGDVSEVQASVTAGIENIRRVNGGEVLSNHIIARPHENLEYVLPIRYTEAVEQFREIVNPSIIRR
notes: CcmK1, Synechocystis sp; PCC6803, full-length gene, codon-optimized for E. coli; Measured mass indicated loss of the first Met residue; also called untagged K1^- 6803; Syn6803 K1^-; source: E. coli BL21 (DE3), purified (TALON cobalt IMAC), tag removed with turbo TEV protease; not shown: His4, C-terminal, cleaved
Consider B9, for which the “stoichiometry N” value in series [2] is 6.

B10: CcmK4 from Synechocystis sp. PCC6803 with N-terminal His4 tag and TEV site (^HT-K4) (natural protein, UniProt P73407 1-112, looked up)
chain: MSAQSAVGSIETIGFPGILAAADAMVKAGRITIVGYIRAGSARFTLNIRGDVQEVKTAMAAGIDAINRTEGADVKTWVIIPRPHENVVAVLPIDFSPEVEPFREAAEGLNRR
notes: CcmK4, Synechocystis sp; PCC6803, full-length gene, codon-optimized for E. coli; A TEV site stands between tag and protein; source: E. coli BL21 (DE3), purified (TALON cobalt IMAC); not shown: His4, N-terminal, kept
In the case of B10, the “stoichiometry N” value in series [3] came out at 6.

B11: CcmK4 from Synechocystis sp. PCC6803, TEV-proteolysis product of ^HT-K4 (^-K4) (natural protein, UniProt P73407 1-112, looked up)
chain: MSAQSAVGSIETIGFPGILAAADAMVKAGRITIVGYIRAGSARFTLNIRGDVQEVKTAMAAGIDAINRTEGADVKTWVIIPRPHENVVAVLPIDFSPEVEPFREAAEGLNRR
notes: CcmK4, Synechocystis sp; PCC6803, full-length gene, codon-optimized for E. coli; also called Syn6803 -K4; source: E. coli BL21 (DE3), purified (TALON cobalt IMAC), tag removed with turbo TEV protease; not shown: His4, N-terminal, cleaved
Take B11: the “stoichiometry N” value in series [2] stood at 6.

B12: CcmK4 from Synechocystis sp. PCC6803 with C-terminal TEV site and His4 tag (K4^-TH) (natural protein, UniProt P73407 1-112, looked up)
chain: MSAQSAVGSIETIGFPGILAAADAMVKAGRITIVGYIRAGSARFTLNIRGDVQEVKTAMAAGIDAINRTEGADVKTWVIIPRPHENVVAVLPIDFSPEVEPFREAAEGLNRR
notes: CcmK4, Synechocystis sp; PCC6803, full-length gene, codon-optimized for E. coli; source: E. coli BL21 (DE3), purified (TALON cobalt IMAC); not shown: His4, C-terminal, kept
As for B12, the “stoichiometry N” value in series [3] came to 6.

B13: CcmK4 from Synechocystis sp. PCC6803, TEV-proteolysis product of K4^-TH (K4^-) (natural protein, UniProt P73407 1-112, looked up)
chain: MSAQSAVGSIETIGFPGILAAADAMVKAGRITIVGYIRAGSARFTLNIRGDVQEVKTAMAAGIDAINRTEGADVKTWVIIPRPHENVVAVLPIDFSPEVEPFREAAEGLNRR
notes: CcmK4, Synechocystis sp; PCC6803, full-length gene, codon-optimized for E. coli; Sample partly degraded by proteolysis (species of similar but not identical mass in native MS); Measured mass indicated loss of the first Met residue; also called Syn6803 K4^-; source: E. coli BL21 (DE3), purified (TALON cobalt IMAC), tag removed with turbo TEV protease; not shown: His4, C-terminal, cleaved
As to B13, the “stoichiometry N” value in series [2] worked out at 6.
